# Columns and labels:
# [1] = biological target: SARS-CoV-2 RBD variant Alpha (N501Y) (Sino Biological) (SARS-CoV-2) (UniProt P0DTC2); experiment: BLI, affinity format: binder on AHC sensor, RBD in solution
# [2] = biological target: SARS-CoV-2 RBD variant Beta (K417N, E484K, N501Y) (Sino Biological) (SARS-CoV-2) (UniProt P0DTC2); experiment: as above
# [3] = biological target: SARS-CoV-2 RBD variant Delta (L452R, T478K) (Sino Biological) (SARS-CoV-2) (UniProt P0DTC2); experiment: as above
# [4] = biological target: SARS-CoV-2 RBD variant Gamma (K417T, E484K, N501Y) (Sino Biological) (SARS-CoV-2) (UniProt P0DTC2); experiment: as above
# [5] = biological target: SARS-CoV-2 RBD variant Kappa (L452R, E484Q) (Sino Biological) (SARS-CoV-2) (UniProt P0DTC2); experiment: as above
# [6] = biological target: SARS-CoV-2 RBD variant Lambda (L452Q, F490S) (Sino Biological) (SARS-CoV-2) (UniProt P0DTC2); experiment: as above
# [7] = biological target: SARS-CoV-2 RBD variant Alpha (N501Y) (Sino Biological) (SARS-CoV-2) (UniProt P0DTC2); experiment: BLI, avidity format: response at highest analyte concentration
# [8] = biological target: SARS-CoV-2 RBD variant Beta (K417N, E484K, N501Y) (Sino Biological) (SARS-CoV-2) (UniProt P0DTC2); experiment: as above
# [9] = biological target: SARS-CoV-2 RBD variant Delta (L452R, T478K) (Sino Biological) (SARS-CoV-2) (UniProt P0DTC2); experiment: as above
# [10] = biological target: SARS-CoV-2 RBD variant Gamma (K417T, E484K, N501Y) (Sino Biological) (SARS-CoV-2) (UniProt P0DTC2); experiment: as above
# [11] = biological target: SARS-CoV-2 RBD variant Kappa (L452R, E484Q) (Sino Biological) (SARS-CoV-2) (UniProt P0DTC2); experiment: as above
# [12] = biological target: SARS-CoV-2 RBD variant Lambda (L452Q, F490S) (Sino Biological) (SARS-CoV-2) (UniProt P0DTC2); experiment: as above
# [13] = biological target: SARS-CoV-2 RBD variant Alpha (N501Y) (Sino Biological) (SARS-CoV-2) (UniProt P0DTC2); experiment: BLI, affinity format: response at highest analyte concentration
# [14] = biological target: SARS-CoV-2 RBD variant Beta (K417N, E484K, N501Y) (Sino Biological) (SARS-CoV-2) (UniProt P0DTC2); experiment: as above
# [15] = biological target: SARS-CoV-2 RBD variant Delta (L452R, T478K) (Sino Biological) (SARS-CoV-2) (UniProt P0DTC2); experiment: as above
# [16] = biological target: SARS-CoV-2 RBD variant Gamma (K417T, E484K, N501Y) (Sino Biological) (SARS-CoV-2) (UniProt P0DTC2); experiment: as above
# [17] = biological target: SARS-CoV-2 RBD variant Kappa (L452R, E484Q) (Sino Biological) (SARS-CoV-2) (UniProt P0DTC2); experiment: as above
# [18] = biological target: SARS-CoV-2 RBD variant Lambda (L452Q, F490S) (Sino Biological) (SARS-CoV-2) (UniProt P0DTC2); experiment: as above
# [19] = biological target: SARS-CoV-2 RBD variant Alpha (N501Y) (Sino Biological) (SARS-CoV-2) (UniProt P0DTC2); experiment: BLI, avidity format: biotinylated RBD on SA sensor, binder in solution
# [20] = biological target: SARS-CoV-2 RBD variant Beta (K417N, E484K, N501Y) (Sino Biological) (SARS-CoV-2) (UniProt P0DTC2); experiment: as above
# [21] = biological target: SARS-CoV-2 RBD variant Delta (L452R, T478K) (Sino Biological) (SARS-CoV-2) (UniProt P0DTC2); experiment: as above
# [22] = biological target: SARS-CoV-2 RBD variant Gamma (K417T, E484K, N501Y) (Sino Biological) (SARS-CoV-2) (UniProt P0DTC2); experiment: as above
# [23] = biological target: SARS-CoV-2 RBD variant Kappa (L452R, E484Q) (Sino Biological) (SARS-CoV-2) (UniProt P0DTC2); experiment: as above
# [24] = biological target: SARS-CoV-2 RBD variant Lambda (L452Q, F490S) (Sino Biological) (SARS-CoV-2) (UniProt P0DTC2); experiment: as above
substance,measurement,setting,value
Cilgavimab (antibody),Kd,[1],2.44 nM
same,koff,[1],0.000981 s⁻¹
same,kon,[1],401000 M⁻¹ s⁻¹
same,Kd,[2],1.43 nM
same,koff,[2],0.000631 s⁻¹
same,kon,[2],441000 M⁻¹ s⁻¹
same,Kd,[3],7.34 nM
same,koff,[3],0.00321 s⁻¹
same,kon,[3],438000 M⁻¹ s⁻¹
same,Kd,[4],2.82 nM
same,koff,[4],0.0011 s⁻¹
same,kon,[4],392000 M⁻¹ s⁻¹
same,Kd,[5],9.89 nM
same,koff,[5],0.00364 s⁻¹
same,kon,[5],368000 M⁻¹ s⁻¹
same,Kd,[6],9.81 nM
same,koff,[6],0.00348 s⁻¹
same,kon,[6],354000 M⁻¹ s⁻¹
same,Response,[7],0.697 nm shift
same,Response,[8],0.473 nm shift
same,Response,[9],0.525 nm shift
same,Response,[10],0.657 nm shift
same,Response,[11],0.628 nm shift
same,Response,[12],0.727 nm shift
same,Response,[13],0.452 nm shift
same,Response,[14],0.438 nm shift
same,Response,[15],0.357 nm shift
same,Response,[16],0.428 nm shift
same,Response,[17],0.322 nm shift
same,Response,[18],0.236 nm shift
same,Kd,[19],0.124 nM
same,koff,[19],4.26e-05 s⁻¹
same,kon,[19],344000 M⁻¹ s⁻¹
same,Kd,[20],0.273 nM
same,koff,[20],9.67e-05 s⁻¹
same,kon,[20],355000 M⁻¹ s⁻¹
same,Kd,[21],0.0481 nM
same,koff,[21],1.61e-05 s⁻¹
same,kon,[21],335000 M⁻¹ s⁻¹
same,Kd,[22],0.193 nM
same,koff,[22],7.42e-05 s⁻¹
same,kon,[22],385000 M⁻¹ s⁻¹
same,Kd,[23],0.204 nM
same,koff,[23],6.08e-05 s⁻¹
same,kon,[23],298000 M⁻¹ s⁻¹
same,Kd,[24],0.0815 nM
same,koff,[24],2.37e-05 s⁻¹
same,kon,[24],291000 M⁻¹ s⁻¹

# Source: patent US20230365956A1
